The target in experiment [1] is His6-MadB (class I lantibiotic dehydratase MadB) (Clostridium sp. Maddingley). Kind of experiment: SEC-MALS; 100 uL of 20 uM MadB on Superdex 200 10/300 Increase, 50 mM HEPES pH 8.0, 200 mM NaCl, 0.5 mL/min. In general terms: SEC sorts molecules by how far they enter the pores of the column.
Experiment [2] has the same target. The experiment in a line: cryo-EM structure; single particle cryo-EM of purified apo MadB and of MadB with MadL3, C2 symmetry imposed.
Experiment [3] shares this target. The experiment in a line: nanoDSF; 2 uM His6-MadB with or without 10 uM ligand peptide, 10 min at room temperature, 50 mM HEPES, 500 mM NaCl, pH 7.5, ramp 1 °C/min from 25 to 95 °C, intrinsic fluorescence 330/350 nm. On the technique in general: Differential scanning fluorimetry follows unfolding on heating by fluorescence.

Regarding “His6-MadB (class I lantibiotic dehydratase MadB) (enzyme)”, the stoichiometry N in experiment [1] and in experiment [2] was 2 throughout.

Regarding “MadL1 (isolated leader peptide of maddinglicin A)”, the Tm shift in experiment [3] turned out to be 1.8 °C.

By stoichiometry N is commonly meant the number of molecules, sites or subunits per partner or assembly.

The record behind these values is paper PMC12241602.
